Substitutions are numbered along the chain they refer to.
T1: human IL-22 receptor (human IL-22Ra and human IL-10Rb) on cells (human, UniProt Q8N6P7 16-574; Q08334 20-325)
T1 sequence (looked up) 1: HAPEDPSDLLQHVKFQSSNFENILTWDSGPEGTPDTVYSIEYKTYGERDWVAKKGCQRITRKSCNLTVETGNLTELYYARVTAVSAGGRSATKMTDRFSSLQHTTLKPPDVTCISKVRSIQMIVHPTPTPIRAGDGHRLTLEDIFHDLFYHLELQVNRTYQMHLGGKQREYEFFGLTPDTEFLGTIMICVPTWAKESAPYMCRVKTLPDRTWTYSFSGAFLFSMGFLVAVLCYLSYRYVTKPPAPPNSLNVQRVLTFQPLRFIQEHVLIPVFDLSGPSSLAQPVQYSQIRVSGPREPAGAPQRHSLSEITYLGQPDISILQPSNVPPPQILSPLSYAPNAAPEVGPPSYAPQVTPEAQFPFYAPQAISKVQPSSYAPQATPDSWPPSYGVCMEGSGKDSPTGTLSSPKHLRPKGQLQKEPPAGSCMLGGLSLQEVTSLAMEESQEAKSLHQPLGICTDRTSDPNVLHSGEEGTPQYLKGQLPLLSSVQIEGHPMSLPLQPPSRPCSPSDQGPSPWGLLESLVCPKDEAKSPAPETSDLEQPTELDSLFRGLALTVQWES
T1 sequence (looked up) 2: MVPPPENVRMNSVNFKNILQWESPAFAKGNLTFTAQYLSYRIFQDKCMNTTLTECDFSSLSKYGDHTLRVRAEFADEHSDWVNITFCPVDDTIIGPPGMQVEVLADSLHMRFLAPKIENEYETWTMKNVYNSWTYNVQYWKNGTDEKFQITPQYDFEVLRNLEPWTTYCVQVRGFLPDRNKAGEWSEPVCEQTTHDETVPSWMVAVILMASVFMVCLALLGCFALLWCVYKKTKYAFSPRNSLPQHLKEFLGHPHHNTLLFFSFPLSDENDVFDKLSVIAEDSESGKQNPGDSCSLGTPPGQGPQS

B1: Derivative 1 (ligand)
chain: GPGCPISSHCRLDKSNFQQPYITNRTFMLAKEASLADNNTDVRLIGEKLFHGVSMSERCYLMKQVLNFTLEEVLFPQSDRFQPYMQEVVPFLARLSNRLSTCHIEGDDLHIQRNVQKLKDTVKKLGESGEIKAIGELDLLFMSLRNACI
modifications: C18 diacid attached by linker γGlu-OEG-OEG-C2DA-Ac to Cys at site 1C (Cys substituted at position 1 of hIL-22, after the G-P-G N-terminal peptide)
B2: Derivative 3 (ligand)
chain: B1 chain
modifications: C16 diacid attached by linker γGlu-OEG-OEG-C2DA-Ac to Cys at site 1C (Cys substituted at position 1 of hIL-22)
B3: Derivative 4 (ligand)
chain: GPGSGSGSCGSGSGSAPISSHCRLDKSNFQQPYITNRTFMLAKEASLADNNTDVRLIGEKLFHGVSMSERCYLMKQVLNFTLEEVLFPQSDRFQPYMQEVVPFLARLSNRLSTCHIEGDDLHIQRNVQKLKDTVKKLGESGEIKAIGELDLLFMSLRNACI
modifications: C16 diacid attached by linker γGlu-OEG-OEG-C2DA-Ac to Cys at site -7C (in the 15-mer N-terminal peptide)
B4: Derivative 10 (ligand)
chain: B1 chain with N38Q, N67Q
modifications: C16 diacid attached by linker γGlu-OEG-OEG-C2DA-Ac to Cys at site 1C (Cys substituted at position 1 of hIL-22)
B5: Comparator 5 (ligand)
chain: B1 chain with N38Q, N67Q
B6: Derivative 6 (ligand)
chain: B1 chain with N38Q, N67Q
modifications: C18 diacid attached by linker γGlu-OEG-OEG-C2DA-Ac to Cys at site 1C (Cys substituted at position 1 of hIL-22)
B7: native mature human IL-22 (hIL-22) (ligand)
chain: APISSHCRLDKSNFQQPYITNRTFMLAKEASLADNNTDVRLIGEKLFHGVSMSERCYLMKQVLNFTLEEVLFPQSDRFQPYMQEVVPFLARLSNRLSTCHIEGDDLHIQRNVQKLKDTVKKLGESGEIKAIGELDLLFMSLRNACI
B8: Comparator 1 (ligand)
chain: B7 chain with A1G
B9: Derivative 9 (ligand)
chain: B7 chain with A33C, N35Q, N64Q
modifications: C18 diacid attached by linker γGlu-OEG-OEG-C2DA-Ac to Cys at site 33C (Cys substituted at position 33 of hIL-22)
B10: Derivative 8 (ligand)
chain: GAPISSCCRLDKSNFQQPYITNRTFMLAKEASLADQNTDVRLIGEKLFHGVSMSERCYLMKQVLQFTLEEVLFPQSDRFQPYMQEVVPFLARLSNRLSTCHIEGDDLHIQRNVQKLKDTVKKLGESGEIKAIGELDLLFMSLRNACI
modifications: C18 diacid attached by linker γGlu-OEG-OEG-C2DA-Ac to Cys at site 6C (Cys substituted at position 6 of hIL-22)
B11: Derivative 2 (ligand)
chain: B3 chain
modifications: C18 diacid attached by linker γGlu-OEG-OEG-C2DA-Ac to Cys at site -7C (in the 15-mer N-terminal peptide G-P-G-S-G-S-G-S-C-G-S-G-S-G-S, numbered negatively from hIL-22 residue 1)
B12: Comparator 4 (ligand)
chain: B1 chain

target: T1, human IL-22 receptor (human IL-22Ra and …); assay: cell-based or functional assay

potency in BHK cell reporter gene assay, fold reduction against hIL-22 | potency in HepG2 pSTAT3 assay, fold reduction against hIL-22 | Binder
7 fold | 2.5 fold | B1
4 fold | – | B2

target: T1, human IL-22 receptor (human IL-22Ra and …); assay: cell-based or functional assay; remark: another data set of the same source

EC50, luciferase reporter gene (STAT3-induced promoter) in BHK cells expressing human IL-22Ra and IL-10Rb | Binder
0.18 nM | B3
0.37 nM | B4
0.48 nM | B1
0.3 nM | B2
0.19 nM | B5
0.61 nM | B6
0.07 nM | B7
0.06 nM | B8
0.28 nM | B9
1.24 nM | B10

target: T1, human IL-22 receptor (human IL-22Ra and …); assay: cell-based or functional assay; remark: another data set of the same source

EC50, pSTAT3 (AlphaScreen SureFire STAT3 p-Tyr705) in HepG2 cells | Binder
6.98 nM | B11
10.1 nM | B1
12.1 nM | B12
14.9 nM | B6
3.88 nM | B7
4.73 nM | B8
